Experimental data as given in US8147838B2, “Peptide” (priority 2005, dated 2012).

Columns and labels:
Conditions in all cases: percent of positive control peptide binding; peptide at 1.11×10^−5M
[1] = target: MHC class I allele A*0201 (A2) (Homo sapiens, UniProt P04439, D140Y/D185E/D98H/E176V/E277Q/G131W/G231S/I119V/I121R/I166T/I218V/L300P/L318F/N151K/N90K/P208A/P217A/Q86G/Q94H/R138H/R169H/T345S); experiment: iTopia peptide binding assay, A*0201
Experimental: (§1) The 9 mers were tested for Peptide Binding, Off Rate and Affinity using iTopia Epitope Discovery System in accordance with the manufacturer's instructions. Briefly, 96 well microtitre plates coated with MHC molecules representing different MHC alleles are used to identify candidate peptides. […] Determinations are performed in duplicate using an ELISA plate reader and included allele specific positive controls.
(§2) i) Peptide Binding—This assay measures the ability of individual peptides to bind to the MHC molecules under standardized optimal binding conditions. The assay is performed for all the test peptides across the selected MHC alleles. The test peptides identified as “binders” are characterized further in terms of affinity and dissociation experiments.
(§3) Following a period of binding under optimal conditions, excess antibody is removed and a measurement of total fluorescence taken (D).
(§4) The binding of the test peptides to the MHC molecules was performed at 1.11×10^−5M of peptide under optimal, standardised test conditions. A control peptide was run in parallel on the same plate and at the same concentration as the test peptides.
(§5) The level of binding is expressed as a percent of positive control peptide binding for each allele.

[2] = target: MHC class I allele A*0301 (A3) (Homo sapiens, UniProt P04439); experiment: iTopia peptide binding assay, A*0301
Experimental: as §1, §2, §3, §4, §5

[3] = target: MHC class I allele B*0702 (B7) (Homo sapiens, UniProt P01889); experiment: iTopia peptide binding assay, B*0702
Experimental: as §1, §2, §3, §4, §5

[4] = target: MHC class I allele A*0101 (A1) (Homo sapiens, UniProt P04439, A114D/A174V/A182V/D101N/D185E/E176A/E190D/L180R/Q94H/R68K/S129P/T187R/V100A/V91M/W191G); experiment: iTopia peptide binding assay, A*0101
Experimental: as §1, §2, §3, §4, §5

Row | Sequence | Peptide binding, MHC Class I Molecule A*0201 [1] | Peptide binding, MHC Class I Molecule A*0301 [2] | Peptide binding, MHC Class I Molecule B*0702 [3] | Peptide binding, MHC Class I Molecule A*0101 [4]
1 | LELNSADLD [Peptide 168] | 3 % of control | 5 % of control | 3 % of control | 0 % of control
2 | LGIVLALIG [Peptide 180] | 10 % of control | 1 % of control | 0 % of control | 0 % of control
3 | LHLEDNALK [Peptide 132] | 4 % of control | 5 % of control | 0 % of control | 4 % of control
4 | LKETEVVQG [Peptide 155] | 3 % of control | 4 % of control | 3 % of control | 0 % of control
5 | LNLSGSRLD [Peptide 62] | 7 % of control | 2 % of control | 7 % of control | 2 % of control
6 | LNSADLDCD [Peptide 169] | 0 % of control | 3 % of control | 0 % of control | 0 % of control
7 | LPSLRHLDL [Peptide 117] | 16 % of control | 1 % of control | 96 % of control | 0 % of control
8 | LPSLRQLDL [Peptide 71] | 27 % of control | 0 % of control | 82 % of control | 0 % of control
9 | LTCAYPEKM [Peptide 161] | 40 % of control | 8 % of control | 5 % of control | 16 % of control
10 | MRNRVLLEL [Peptide 165] | 6 % of control | 4 % of control | 13 % of control | 0 % of control
11 | NGTLAELQG [Peptide 138] | 9 % of control | 3 % of control | 0 % of control | 3 % of control
12 | NHIVPPEDE [Peptide 91] | 11 % of control | 3 % of control | 5 % of control | 6 % of control
13 | NNPWVCDCH [Peptide 147] | 0 % of control | 16 % of control | 4 % of control | 0 % of control
14 | NNSLVSLTY [Peptide 122] | 12 % of control | 4 % of control | 0 % of control | 8 % of control
15 | NRNLTEVPT [Peptide 40] | 6 % of control | 0 % of control | 5 % of control | 1 % of control
16 | PAAGDGRLR [Peptide 5] | 5 % of control | 4 % of control | 5 % of control | 4 % of control
